Data as given in publication PMC9063846 (Acta Crystallographica. Section D, Structural Biology, 2022).

Target: the molecule itself
Experiment: SEC-MALS; SEC-MALLS; Superdex 200 Increase 10/300 GL; 100 µl injected at 2 mg/ml; 20 mM HEPES, 200 mM NaCl pH 7.4; room temperature (20 ± 2 °C)

B1: Phocaeicola vulgatus sialic acid 9-O-acetylesterase (PvSAE), His6-tagged (enzyme)
chain: ERKYSTFYEQRATLFEELPVTSKDIIFLGNSITNGCEWAELFQNKNVKNRGISGDICMGVYDRLDPIVKGKPAKIFLLIGINDVSRGTSADKIISEISMIVRKIKQESPKTKLYLQSVLPVNDCYGMFNGHTSRWQVVKQINDLLEPLAVKEGVAYIDLYSHFVEKETGKMNPVYTNDGLHLLGKGYLLWRDIVKPYVDQK
notes: Sialic acid 9-O-acetylesterase PvSAE (BVU4141) of Phocaeicola vulgatus, GenBank ABR41743.1, without its signal peptide; the text says that the signal peptide is predicted to be cut between residues 19 and 20; Homodimer by SEC-MALLS and in both crystal forms; also called His6-PvSAE; P. vulgatus 9-O-acetylsialic acid esterase
- stoichiometry N: 2
